# Results taken from patent US9744220B2, “Compositions and methods for treating inflammatory diseases” (priority 2013, dated 2017).
# “Also recorded” adds a separate entry of the source.
# Experiments:
# [1] = system: cardiac inflammatory and fibrogenic markers; test: Chronic Chagas cardiomyopathy (CCC) mice, transcripts by qPCR; format: in vivo
# Experimental: FIG. 3A depicts in vivo experimental design, groups, treatment and timeline for the infective and anti-inflammatory effects of sPDNF. C57BL/6 mice (7 per group) were injected intraperitoneally with T cruzi Colombian strain (8×10^2 per mouse) and, four months later, intravenously with PBS (vehicle) or sPDNF (1 mg/kg body weight) at 0, 3, and 24 hours, weekly for 3 weeks. Mice were sacrificed 50 days after the first set of IV sPDNF treatment. FIG. 3B are images of heart (ventricle) paraffin-embedded, sectioned, and stained with H&E. Arrows indicate foci of inflammatory infiltrates, which were abundant in sham-treated (IV PBS) CCC mice and rare in IV sPDNF-treated CCC mice. Similar histology was found in other tissue sections and in a distinct set of sPDNF-treated and PBS-sham mice.
# FIG. 5A is a graph showing transcript expression for inflammatory cytokines in hearts of the infected mice, as assessed by qPCR for the indicated transcripts, which were normalized to HPRT and made relative to uninfected vehicle-treated mice. Values for IFN-λ were reduced by 3-fold; **, p<0.01. FIG. 5B is a graph showing transcript expression for inflammatory cell markers in hearts of the infected mice, as assessed by qPCR for the indicated transcripts, which were normalized to HPRT and made relative to uninfected vehicle-treated mice. Values for CD8, and CD4 were reduced by 15-, and 1.5-fold, respectively; **, p<0.01, ***, p<0.001. FIG. 5C is a graph showing transcript expression for inflammatory cytokines in hearts of the infected mice, as assessed by qPCR for the indicated transcripts, which were normalized to HPRT and made relative to uninfected vehicle-treated mice. FIG. 5D is a graph showing percent reduction of cardiac inflammatory markers of mice chronically infected with T cruzi, using data from FIGS. 5A-5C. Baseline represents mean transcripts of uninfected mice. FIG. 5E is a graph showing expression of TSG-6 transcripts in heart and liver of T cruzi infected mice. Heart (ventricles+atria) and liver of mice (5 per group) infected acutely (25-day post injection) (Acute) or chronically (6-months PI, CCC, same as in FIG. 3) with T cruzi Colombian were assessed for TSG-6 transcript by qPCR and plotted relative to uninfected mice set at 1.0; **, P<0.001. […] is a graph showing TSG-6 serum levels assessed by ELISA (MyBiosource) in mice uninfected (Un-Inf) or bearing CCC and injected IV with vehicle PBS or sPDNF following the protocol described in FIG. 3. Bars represent the average (±SD) of three mice per point; two separate experiments, **, P<0.01.
# [2] = target: TrkB (Homo sapiens, UniProt Q16620); details: previous finding; cited from earlier work
# Sequence of TrkB (Q16620 32-822, species assumed): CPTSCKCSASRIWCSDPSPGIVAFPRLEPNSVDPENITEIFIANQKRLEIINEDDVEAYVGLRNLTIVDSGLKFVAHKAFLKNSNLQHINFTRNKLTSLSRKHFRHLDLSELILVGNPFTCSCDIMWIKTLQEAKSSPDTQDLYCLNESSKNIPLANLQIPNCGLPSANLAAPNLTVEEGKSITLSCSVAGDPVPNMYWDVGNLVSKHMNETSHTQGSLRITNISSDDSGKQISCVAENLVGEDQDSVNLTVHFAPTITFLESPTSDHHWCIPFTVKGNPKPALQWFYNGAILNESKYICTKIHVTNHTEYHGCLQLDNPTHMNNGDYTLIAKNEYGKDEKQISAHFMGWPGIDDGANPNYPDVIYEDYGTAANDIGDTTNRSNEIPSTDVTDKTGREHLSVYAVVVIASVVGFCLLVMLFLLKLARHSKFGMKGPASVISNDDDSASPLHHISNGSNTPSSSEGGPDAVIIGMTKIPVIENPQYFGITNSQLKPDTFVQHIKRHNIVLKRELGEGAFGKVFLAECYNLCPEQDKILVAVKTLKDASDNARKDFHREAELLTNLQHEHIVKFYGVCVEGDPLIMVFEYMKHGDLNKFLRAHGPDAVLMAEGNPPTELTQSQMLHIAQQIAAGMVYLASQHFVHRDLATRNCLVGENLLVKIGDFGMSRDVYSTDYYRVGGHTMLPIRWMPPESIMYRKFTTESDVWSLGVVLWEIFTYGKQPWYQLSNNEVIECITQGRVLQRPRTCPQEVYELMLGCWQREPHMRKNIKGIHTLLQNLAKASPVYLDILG
# [3] = IV, naive mice; cited from earlier work
# [4] = system: H9c2 cardiomyocytes; test: sPDNF stimulation of H9c2 cardiomyocytes, transcripts by qPCR; format: cell-based, rat
# Experimental: FIG. 8A is a graph showing dose-response of MCP-1 secretion to sPDNF stimulation. H9c2 cardiomyocytes were plated in 6-well plates, grown in low serum (0.1% FCS) overnight, and stimulated with the indicated doses of sPDNF for 3 hr. Secretion of MCP-1, MIP-2α and IL-6 was determined by ELISA. FIG. 8B is a graph showing dose-response of MCP-transcript expression. H9c2 cardiomyocytes were plated in 6-well plates, grown in low serum (0.1%) overnight, and stimulated with the indicated doses of sPDNF for 3 hr, and MCP-transcript quantified by qPCR. Chemokine gene expression was normalized to HPRT and fold change calculated relative to vehicle-treated cells. Points represent mean±SD fold change expression of triplicate samples; *P<0.05, **P<0.01, and ***P<0.005. FIG. 8C is a graph showing time course of MCP-1 and FKN transcripts expression. H9c2 cardiomyocytes were plated in 6-well plates (triplicate), grown in low serum (0.1%) overnight, stimulated with sPDNF (1 μg/ml) for the indicated times, and MCP-1 and FKN (data not shown) transcripts quantified by qPCR. Three experiments gave similar results.
# Primary cardiomyocytes and cardiac fibroblasts, and H9c2 cardiomyocytes were seeded at 6-8×10^4 cells per well in DMEM/10% FCS and allowed to adhere overnight, serum starved (DMEM/0.1% FCS overnight), and treated with sPDNF (0.5 ng/ml-8 μg/ml, 0-16 h). Cell supernatants were collected and stored at −80° C. and cell monolayers rinsed with PBS and collected in Trizol for qPCR analysis.
# RNA was isolated from Trizol lysates of cell monolayers or liquid nitrogen snap frozen tissue samples dissociated by a Tissue-Tearor mechanical homogenizer (Biospec Products, Inc.). cDNA was synthesized using the Quantitect Reverse Transcription kit (Qiagen) according to manufacturer's instructions. Chemokine and chemokine receptor transcripts were amplified using specific primers and normalized to HPRT using SYBR Green (Qiagen), and, if needed, expressed relative to control-unstimulated cells. The following primers were used: […]
# [5] = system: cardiac Sca-1+ cells; test: Intravenous sPDNF into naïve mice, Sca-1 staining of heart sections; format: in vivo
# [6] = hearts of infected (CCC) mice, FIG. 5B
# [7] = H9c2, sPDNF 1 μg/ml, time course
molecule,measurement,setting,value
"sPDNF: N-terminal short-form of T cruzi PDNF that contains Trk-binding sites, recombinant; amino acids 1-588 of SEQ ID NO: 2; JR-100 is the commercial name (protein, listed as Trypanosoma cruzi) MGKTVVVASRMFWLMFFVPLLLAICPSEPAYALAPGSSRVELFKRKNSTVPFEDKAGKVTERVVHSFRLPALVNVDGVMVAIADARYDTSNDNSLIDTVAKYSVDDGETWETQIAIKNSRVSSVSRVVDPTVIVKGNKLYVLVGSYYSSRSYWSSHGDARDWDILLAVGEVTKSTAGGKITASIKWGSPVSLKKFFPAEMEGMHTNQFLGGAGVAIVASNGNLVYPVQVTNKKKQVFSKIFYSEDDGKTWKFGKGRSDFGCSEPVALEWEGKLIINTRVDWKRRLVYESSDMEKPWVEAVGTVSRVWGPSPKSNQPGSQSSFTAVTIEGMRVMLFTHPLNFKGRWLRDRLNLWLTDNQRIYNVGQVSIGDENSAYSSVLYKDDKLYCLHEINTDEVYSLVFARLVGELRIIKSVLRSWKNWDSHLSSICTPADPAASSSESGCGPAVTTVGLVGFLSGNASQNVWEDAYRCVNASTANAERVRNGLKFAGVGGGALWPVSQQGQNQRYRFANHAFTLVASVTIHEAPRAASPLLGASLDSSGGKKLLGLSYDEKHQWQPIYGSTPVTPTGSWETGKRYHLVLTMANKI",expression of anti-inflammatory TSG-6 in the heart and liver,"[1]; CCC mice, IV",increased expression; also recorded: restored TSG-6 transcript to levels seen in acutely infected mice
same,transcripts of cardiac inflammatory and fibrogenic markers,"[1]; CCC mice, IV",global decrease
same,IFN-λ transcript values reduced,"[1]; hearts of infected (CCC) mice, FIG. 5A",3 fold
same,CD4 transcript values reduced,[1]; [6],1.5 fold
same,CD8 transcript values reduced,[1]; [6],15 fold
same,"cardiac inflammation (CD8 lymphocyte infiltrates, pro-inflammatory cytokines such as tumor necrosis factor-α)","[1]; model of chronic Chagas disease, intravenous",reduced
same,recognition of TrkB,[2],not recognized
same,half-life in the blood,[3],~15 min
same,time of peak in the myocardium post-injection,[3],~15 min
same,FKN mRNA,"[4]; H9c2, 3 hr, dose-dependent",increase
same,MCP-1 mRNA,"[4]; H9c2, 3 hr, dose-dependent",increase
same,time at which MCP-1 transcript dropped to levels similar to unstimulated cells,[4]; [7],8 h
same,time of maximal MCP-1 transcript increase after sPDNF stimulation,[4]; [7],3 h
same,cardiac Sca-1+ cells,[5],expanded
